Numbering of substitutions follows the chain as printed.

For one series, the target named is T1, hANGPTL4(26-148)-mFc (Homo sapiens, UniProt Q9BY76).
T1 construct: amino acid residues 26-148 of human ANGPTL4 fused in-line to mouse IgG2a (hANGPTL4-mFc)
Briefly: BIACORE, full mAb or Fab over anti-mFc captured hANGPTL4(26-148)-mFc. Type of series: binding. As to the method: (§1) Briefly, various concentrations (3.125 nM-100 nM) of anti-hANGPTL4 antibodies (i.e., H1H268 Fab, entire H1H268 mAb, H1H284 Fab, and entire H1H284 mAb) were injected over a low density anti-mFc captured hANGPTL4(26-148)-mFc (˜68±4 RU) surface, or the surface of amino-coupled hANGPTL4(26-406)-His (R&D Systems) (450 RU) or amino-coupled cynomolgus monkey N-terminal region (amino acid residues 1-130 of SEQ ID NO:490) expressed with an C-terminal hexa-histidine tag (MfANGPTL4(1-130)-His) (1,028 RU). Kinetic analysis was performed to measure ka and kd, and KD values and half-life of antigen/antibody complex dissociation were calculated. The results are shown in Table 4 (H1H268P) and Table 5 (H1H284P).
Background: SPR reads the build-up and loss of mass on a sensor chip optically.

In the next series the target is T2, mANGPTL4(26-410)-His (Mus musculus, UniProt Q9Z1P8).
T2 sequence (Q9Z1P8 26-410): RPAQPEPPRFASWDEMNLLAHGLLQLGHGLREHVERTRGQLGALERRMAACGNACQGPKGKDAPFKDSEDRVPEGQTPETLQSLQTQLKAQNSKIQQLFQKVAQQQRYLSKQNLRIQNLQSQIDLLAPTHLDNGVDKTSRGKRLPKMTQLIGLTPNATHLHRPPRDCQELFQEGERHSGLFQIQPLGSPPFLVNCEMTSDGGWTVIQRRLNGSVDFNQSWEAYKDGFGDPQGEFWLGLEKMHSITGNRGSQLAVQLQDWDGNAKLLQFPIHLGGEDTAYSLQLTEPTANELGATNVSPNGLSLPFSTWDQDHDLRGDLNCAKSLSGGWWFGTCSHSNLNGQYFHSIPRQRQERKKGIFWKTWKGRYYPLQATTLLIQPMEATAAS
Briefly: Cell-free LPL bioassay, inhibition of mANGPTL4-His. In kind it is biochemical. To be noted: constant 1 nM mANGPTL4(26-410)-His; antibody 0 to 100 nM; NB: Not blocking.

Another series deals with MfANGPTL4(1-130)-His. Briefly: BIACORE, full mAb or Fab over amino-coupled MfANGPTL4(1-130)-His. Type of series: binding, cynomolgus monkey. As to conditions: for Response bound at 50 nM mAb or Fab: amino-coupled 1,028 RU. As to the method: as §1
Series [1] in a line: Serum human Ab levels in humanized ANGPTL4 mice, ELISA. Type of series: in vivo, mouse. Details: unit not given here. To be noted: mean±SEM. As for the experimental part: The effect of anti-hANGPTL4 antibodies H1H268P and H1H284P on serum TG levels was determined in mice expressing the ANGPTL4 protein containing the human N-terminal coil-coil region (“humanized ANGPTL4 mice”). The humanized ANGPTL4 mouse was made by replacing first three exons of the mouse Angptl4 gene (the N terminal coil-coil region) with the corresponding human N-terminal coil-coil ANGPLT4 sequence in C57BL6/129 (F1H4) embryonic stem cells. After germ line transmission was established, heterozygous mice (ANGPTL4hum/+) were bred together to generate homozygous mice [ANGPTL4hum/hum or hANGPTL4(+/+)] on a C57BL6 background. Humanized ANGPTL4 mice were pre-bled 7 days before (day −7) the experiment and put into groups of six mice each for each antibody tested. Antibodies (H1H268P, H1H284P and isotype-matched (hIgG1) control with no known cross-reactivity to mouse antigens) were administered at 10 mg/kg dose by subcutaneous injection. Mice were bled after 4 hours of fasting at days 1, 4, 7 and 11 after antibody injection; and serum TG levels were determined by ADVIA® 1800 Chemistry System (Siemens). Average TG levels were calculated for each time point for each antibody.
Levels of circulating anti-hANGPTL4 antibodies (“serum human Ab”) were also determined using a standard ELISA assay. Briefly, plates were coated with a goat anti-human Fc antibody (Sigma-Aldrich) to capture serum human Ab. Serum was then added to the plates and captured anti-hANGPTL4 antibodies were detected by chemiluminescence using a horseradish peroxidase (HRP)-conjugated goat anti-human IgG antibody (Sigma-Aldrich).
In general terms: In an ELISA, binding on a coated surface is turned into a signal by an enzyme label.

Series [2] is described as follows: Pharmacokinetic clearance in wild-type and hANGPTL4(+/+) mice, sandwich ELISA. Type of series: in vivo, mouse. To be noted: 1 mg/kg s.c. As to the method:
Pharmacokinetic clearance rates of anti-hANGPTL4 antibodies H4H268P2 and H4H284P were determined in wild-type mice and in transgenic mice expressing human ANGPTL4 [hANGPTL4(+/+) mice]. The strain background for both wild-type and transgenic mice was C57BL6 (75%) and 129Sv (25%). Separate cohorts consisting of 5 mice each of either wild-type or hANGPTL4(+/+) mice received subcutaneously (s.c.) 1 mg/kg of H4H268P2, H4H284P, or an isotype-matched (hIgG4) control with irrelevant specificity. Blood samples were collected at 0 hour, 6 hours, 1 day, 2 days, 3 days, 4 days, 7 days, 10 days, and 15 days, 22 days, and 30 days after the injection. Serum levels of human antibodies were determined by a sandwich ELISA. Briefly, a goat polyclonal anti-human IgG (Fc-specific) capture antibody (Jackson ImmunoResearch, PA) was coated in 96-well plates at a concentration of 1 μg/mL and incubated overnight at 4° C. After the plates were blocked with BSA, serum samples in a six-point serial dilution and reference standards of the respective antibody in a twelve-point serial dilution were added to the plate and incubated for one hour at room temperature. After washing with a suitable washing buffer, captured human antibodies were detected using the same goat polyclonal anti-human IgG (Fc-specific) antibody conjugated with horse radish peroxidase (HRP) (Jackson ImmunoResearch, PA) and developed by standard colorimetric response using tetramethylbenzidine (TMB) substrate, measuring absorbance at 450 nm in a plate reader. Concentrations of human antibodies in serum were determined using the reference standard curve generated for the same sample plate.

Where [3] appears, read: day 1 after injection, 10 mg/kg s.c.
[4] abbreviates: day 4 after injection, 10 mg/kg s.c.
Where [5] appears, read: day 7 after injection, 10 mg/kg s.c.
Setting [6] is: day 11 after injection, 10 mg/kg s.c.

Sequence of MfANGPTL4(1-130)-His (as listed by the source): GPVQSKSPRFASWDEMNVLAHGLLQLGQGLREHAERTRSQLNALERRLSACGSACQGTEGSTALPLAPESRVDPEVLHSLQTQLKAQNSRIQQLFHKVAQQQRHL
T1 sequence (Q9BY76 with tags, fused parts or gaps): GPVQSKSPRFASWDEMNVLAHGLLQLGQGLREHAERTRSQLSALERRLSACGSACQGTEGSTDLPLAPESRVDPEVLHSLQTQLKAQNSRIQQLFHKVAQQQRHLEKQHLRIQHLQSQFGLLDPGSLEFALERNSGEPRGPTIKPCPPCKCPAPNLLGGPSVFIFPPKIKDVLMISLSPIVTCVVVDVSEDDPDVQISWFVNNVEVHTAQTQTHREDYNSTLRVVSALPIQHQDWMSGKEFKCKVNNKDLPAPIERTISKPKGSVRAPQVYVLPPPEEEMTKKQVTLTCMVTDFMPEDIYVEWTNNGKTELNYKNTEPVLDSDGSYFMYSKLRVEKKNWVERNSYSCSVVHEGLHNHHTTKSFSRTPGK

B1: H1H268P: anti-hANGPTL4 antibody, hIgG1 isotype, HCVR/LCVR SEQ ID NOs 42/44 (antibody, V domains shown)
VH: QVQLQESGAGLLKPSETLSLTCTVYGGSFSIHHWTWIRHPPGKGLEWIGEINHRGSTNYNPSLKSRVTISIDTSKNQFSLKLSAVTAADTAVYYCARGLRFLDWLSSYFDYWGQGTLVTVSS
VL: DIQMTQSPSSLSASVGDRVTITCRASQGISDYLAWYQQKPGKVPNLLIYAASALQSGVPSRFSGSGSGTDFTLTISSLQPEDVATYYCQNYNTAPLTFGGGTKVEIK
As usually defined, the IC50 is the concentration at which inhibition is half-maximal. B1: the ka turned out to be 628000 M⁻¹ s⁻¹ with hANGPTL4(26-148)-mFc (pH 5.75, 25° C.); 153000 M⁻¹ s⁻¹ with hANGPTL4(26-148)-mFc (pH 7.2, 25° C.); 107000 M⁻¹ s⁻¹ with MfANGPTL4(1-130)-His (pH 5.75, 25° C.); 392000 M⁻¹ s⁻¹ in the series on MfANGPTL4(1-130)-His (pH 7.2, 25° C.). Besides, the kd with hANGPTL4(26-148)-mFc (pH 5.75, 25° C.) was 0.000138 s⁻¹; with hANGPTL4(26-148)-mFc (pH 7.2, 25° C.), 9.59e-05 s⁻¹; on MfANGPTL4(1-130)-His (pH 5.75, 25° C.) it was 8.24e-05 s⁻¹; on MfANGPTL4(1-130)-His (pH 7.2, 25° C.) it was 4.76e-05 s⁻¹. In the series with mANGPTL4(26-410)-His, this molecule showed an IC50 of over 100 nM. In addition, the “Response bound at 50 nM mAb or Fab” value in the series with MfANGPTL4(1-130)-His (pH 5.75, 25° C.) turned out to be 583; with MfANGPTL4(1-130)-His (pH 7.2, 25° C.), 279. Further, the “Serum Human Antibody” value in series [1] (setting [3]) was 24130 ± 1788; in series [1] (setting [4]), 16557 ± 1369; in series [1] (setting [5]), 12586 ± 1176; in series [1] (setting [6]), 6106 ± 1111; in series [1] (day −7 (pre-bleed)), 2.92 ± 2.92.

B2: H4H268P2: IgG4 version of H1H268P with a single amino acid substitution in framework region 1, HCVR/LCVR SEQ ID NOs 487/44 (antibody, V domains shown)
VH: B1 VH with E6Q
VL: B1 VL
modifications: IgG4 constant region
Broadly, the Cmax is the peak of the concentration-time curve. What is called AUC is concentration integrated over time. On to B2, for which the Cmax in series [2] (Wild-type mice) was 18400 ng/mL; in series [2] (hANGPTL4(+/+) mice) it was 13300 ng/mL. The AUC in series [2] (hANGPTL4(+/+) mice, over the 30-day period) stood at 37000 ng·h/mL.

B3: H1H284P: anti-hANGPTL4 antibody, hIgG1 isotype, HCVR/LCVR SEQ ID NOs 90/92 (antibody, V domains shown)
VH: QVQLVESGGGVVQPGRSLRLSCAASGFTFSSYGMHWVRQAPGKGLEWMAVISFDGGNKNNADSVKGRFTISRDNSKNTLYLQMNSLRAEDTAVYYCAKEGDRSGHPYFYYYGLDVWGQGTTVTVS
VL: DIQLTQSPSFLSASVGDRVTITCWASQGISSYLAWYQQKPGKAPKLLIYAASTLQSGVPSRFSGSGSETEFTLTISSLQPEDFATYYCQQLHSYPLTFGGGTKVEIK
On to B3, for which the ka in the series with hANGPTL4(26-148)-mFc (pH 5.75, 25° C.) stood at 1.09e+06 M⁻¹ s⁻¹; with hANGPTL4(26-148)-mFc (pH 7.2, 25° C.), 274000 M⁻¹ s⁻¹; in the series on MfANGPTL4(1-130)-His (pH 5.75, 25° C.), 1.55e+06 M⁻¹ s⁻¹; in the series with MfANGPTL4(1-130)-His (pH 7.2, 25° C.), 467000 M⁻¹ s⁻¹. In addition, the kd stood at 8.91e-05 s⁻¹ with hANGPTL4(26-148)-mFc (pH 5.75, 25° C.); 5.36e-05 s⁻¹ in the series with hANGPTL4(26-148)-mFc (pH 7.2, 25° C.); 8.42e-05 s⁻¹ at MfANGPTL4(1-130)-His (pH 5.75, 25° C.); 5.83e-05 s⁻¹ on MfANGPTL4(1-130)-His (pH 7.2, 25° C.). In addition, the IC50 with mANGPTL4(26-410)-His is over 100 nM. Besides, the “Response bound at 50 nM mAb or Fab” value with MfANGPTL4(1-130)-His (pH 5.75, 25° C.) is recorded as 804; in the series on MfANGPTL4(1-130)-His (pH 7.2, 25° C.) it was 414. Further, the “Serum Human Antibody” value was 16459 ± 1455 in series [1] (setting [3]); 9103 ± 767 in series [1] (setting [4]); 2428 ± 525 in series [1] (setting [5]); 135 ± 38 in series [1] (setting [6]); 3.02 ± 2.38 in series [1] (day −7 (pre-bleed)).

These data come from patent US9120851B2, “Human antibodies to human angiopoietin-like protein 4” (Regeneron Pharmaceuticals, Inc., priority 2009, dated 2015).
